The values that follow come from US12304944.

Data set [1] deals with hFIX R338L (codon-optimized human factor IX carrying the R338L mutation).
The subject of data set [2] is hFIX R338L-2Fc (codon-optimized human factor IX R338L, XIa-cleavable linker, IgG1 Fc, 3xGGGS linker, IgG1 Fc).

Chain of hFIX R338L-2Fc (codon-optimized human factor IX R338L, XIa-cleavable linker, IgG1 Fc, 3xGGGS linker, IgG1 Fc) (chain, as listed by the source R338L R338L): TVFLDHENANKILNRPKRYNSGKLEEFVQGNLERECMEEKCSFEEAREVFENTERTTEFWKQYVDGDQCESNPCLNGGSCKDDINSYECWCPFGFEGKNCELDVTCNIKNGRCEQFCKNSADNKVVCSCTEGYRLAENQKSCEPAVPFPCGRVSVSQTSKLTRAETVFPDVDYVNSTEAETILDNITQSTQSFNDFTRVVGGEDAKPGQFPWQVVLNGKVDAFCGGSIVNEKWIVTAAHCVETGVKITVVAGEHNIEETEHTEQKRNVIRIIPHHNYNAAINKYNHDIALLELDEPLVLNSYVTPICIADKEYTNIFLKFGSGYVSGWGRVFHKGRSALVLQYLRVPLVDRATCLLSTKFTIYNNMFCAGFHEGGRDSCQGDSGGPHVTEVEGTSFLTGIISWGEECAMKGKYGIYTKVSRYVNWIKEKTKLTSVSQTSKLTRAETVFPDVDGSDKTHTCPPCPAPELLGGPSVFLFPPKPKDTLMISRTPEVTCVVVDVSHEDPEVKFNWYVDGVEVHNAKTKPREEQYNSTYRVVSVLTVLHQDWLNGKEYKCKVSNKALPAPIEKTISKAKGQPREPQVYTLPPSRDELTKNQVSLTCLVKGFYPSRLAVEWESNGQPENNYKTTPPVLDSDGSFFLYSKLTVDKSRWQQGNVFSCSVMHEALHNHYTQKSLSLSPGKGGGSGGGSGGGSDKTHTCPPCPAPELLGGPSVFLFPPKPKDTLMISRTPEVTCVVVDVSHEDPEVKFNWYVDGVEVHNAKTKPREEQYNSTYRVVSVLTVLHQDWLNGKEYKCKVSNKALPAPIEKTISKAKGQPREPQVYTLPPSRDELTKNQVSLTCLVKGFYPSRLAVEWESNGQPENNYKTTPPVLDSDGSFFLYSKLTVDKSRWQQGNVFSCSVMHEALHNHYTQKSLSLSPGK
Chain of hFIX R338L (codon-optimized human factor IX carrying the R338L mutation) (chain, as listed by the source R338L R338L): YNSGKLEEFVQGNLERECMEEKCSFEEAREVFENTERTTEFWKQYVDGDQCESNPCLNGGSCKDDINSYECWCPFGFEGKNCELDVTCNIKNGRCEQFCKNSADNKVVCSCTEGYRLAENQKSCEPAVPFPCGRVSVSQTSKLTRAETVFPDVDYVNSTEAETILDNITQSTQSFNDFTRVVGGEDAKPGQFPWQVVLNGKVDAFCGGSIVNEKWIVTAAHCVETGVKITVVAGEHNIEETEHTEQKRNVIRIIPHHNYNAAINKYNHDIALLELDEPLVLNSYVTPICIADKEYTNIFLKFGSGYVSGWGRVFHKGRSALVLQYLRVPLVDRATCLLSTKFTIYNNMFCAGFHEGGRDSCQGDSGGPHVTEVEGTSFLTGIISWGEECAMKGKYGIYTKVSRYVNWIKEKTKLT

For the substance activated factor XI (XIa), the “cleavage by XIa, western blot of conditioned media treated or not with XIa” value in data set [1] and in data set [2] was “Only low levels of partial XIa cleavage of media derived unpurified hFIX could be observed” each time. Moreover, the “processing by XIa in vitro” value in data set [2] is given as “its translated protein was efficiently processed by XIa”.
